Legend:
[1] = biological target: T1, human MUC16 (mucin 16), endogenously expressed on cells (human); test: MSD electrochemiluminescence cell binding; RLU ratio OVCAR-3/SK-OV-3; Ab 1.9 nM
T1 construct: Endogenous MUC16 on OVCAR-3 / OVCAR3-Luc / PEO-1 / HPAC cells; also called hMUC16

[2] = biological target: T1, human MUC16 (mucin 16), endogenously …; test: MSD electrochemiluminescence cell binding; RLU ratio OVCAR-3/SK-OV-3; Ab 16.7 nM

Binder	Ratio: anti-MUC16 Binding OVCAR-3/SK-OV-3 [1] [ratio]	Ratio: anti-MUC16 Binding OVCAR-3/SK-OV-3 [2] [ratio]
H1H9529N (antibody, human IgG1, V domains shown, Human IgG1 Fc version) VH: QVQLQQWGAGLLKPSETLSLTCAVYGGSFSGFYWSWIRQPPGKGLEWIGEINHSGSAKYNPSLKNRVIISIDTSKNQFSLKLDSVTAADTAVYNCARQGWNFAIFDYWGQGTLVDVSS VL: DIVMTQSPDSLAVSLGGRATINCKSSQSVLHSSYNKDHLAWYQQRPGQPPKLLIYWASTRESGVPDRFSGSGSGTDFTLTISSLQAEDVAVYYCQQYNILPPTFGQGTRVEIK	109	74
H1H9524N (antibody, human IgG1, V domains shown, Human IgG1 Fc version) VH: QVQLQQWGAGLLKPSETLSLTCAVYGGSFSDYYWSWIRQPPGKGLEWIGEINHRGKTNYNPSLKSRVSISVDPSKNQFSLKLSSVTAADTAVYYCARQGWNYAIFDYWGQGILVPVSS VL: not shown	20	48
H1H9525N (antibody, human IgG1, V domains shown, Human IgG1 Fc version) VH: QVQLQQWGAGLLKPSETLSLTCAVYGGSFSGYYWSWIRQPPGKGLEWIGEINHSGKTTYSPSLKSRVTISVDTSKSQFSLKLSSVTAADTAVYYCARQGLNYAIFDYWGQGTLVTVSS VL: not shown	4	21
H2M9538N (antibody, V domains shown) VH: QVQLQESGPGLVKPSETLSLTCTVSGGSISSYYWSWIRQPPGKGLEWIGYIYYSGSTNYNPSLKSRVTISVDTSKNQFSLKLSSVTAADTAVYYCARKKLVFDYWGQGTLVTVSS VL: not shown	89	26
H1H9538N (antibody, V domains shown) VH: QVQLQESGPGLVKPSETLSLTCTVSGGSISSYYWSWIRQPPGKGLEWIGYIYYSGSTNYNPSLKSRVTISVDTSKNQFSLKLSSVTAADTAVYYCARKKLVFDYWGQGTLVTVSS VL: not shown	12	13
H1H9528N (antibody, human IgG1, V domains shown, Human IgG1 Fc version) VH: QMQLQESGPGLVKPSETLSLTCTVSGGSISSYYWNWIRQPPGKGLEWIGYIYYSGNNFNPSLKSRVTISVDTSKNQFSLKLSSVTAADTAVYYCARAFHWNYEFDYWGQGTLVTVSS VL: EIVLTQSPGTLSLSPGERATLSCRASQSVSNNYLAWYQQKPGQAPRLLLYGASSRTTDIPDRFSGSGSGTDFTLTISRLEPEDFAVYYCQQYDNSPLTFGGGTKVEIR	41	18
